From patent US20210322511A1 (Harvard, published 2021)

B1: recombinant human SP-BM (other)
chain: PIPLPYCWLCRALIKRIQAMIPKGALAVAVAQVCRVVPLVAGGICQCLAERYSVILLDTLLGRMLPQLVCRLVLRCSM
modifications: inter-molecular disulfide bond in the dimer
notes: also called recombinant SP-BM
B2: SP-BM purified from bovine lungs (other, UniProt P15781 188-266, looked up)
chain: FPIPIPYCWLCRTLIKRIQAVIPKGVLAMTVAQVCHVVPLLVGGICQCLVERYSVILLDTLLGRMLPQLVCGLVLRCSS
modifications: monomers disulfide-linked through Cys48
notes: domain: SP-BM; also called bovine SP-BM; mature SP-B

Legend:
[1] = molecular target: the molecule itself; experiment: SEC, then non-reducing and reducing SDS-PAGE
[2] = molecular target: the molecule itself; experiment: non-reducing SDS-PAGE, disulfide-linked homodimer
Protocol: Fractions of the last SEC were analyzed by SDS-PAGE and Coomassie-blue staining. The position of SP-B is indicated by an arrow.
The extract was subjected to chromatography on a Sepharose LH-20 column to remove phospholipids. Protein fractions were dried, dissolved in the detergent octylglucoside, and further purified by size-exclusion chromatography (SEC).

Row | Protein | binding result [1] | binding result [2]
1 | B1 | binds | –
2 | B2 | – | binds
